Measurements taken from patent US20260234247A1 (published 2026).
Changes are numbered by the printed parent chain.

B1: LK-RB1-9.h2 (antibody, human IgG4, kappa, V domains shown)
VH: QVQLVQSGSELKKPGASVKVSCTASGYTFTTYGMSWVRQAPGQGLKWMGWINTYSGVPTYADDFKGRFVFSLDTSVSTAYLQISSLKAEDTAVYFCARRRRTYHGYLSFDYWGQGTTVTVSS
VL: DIQMTQSPSSLSASVGDRVTITCETSENIYGALNWYQQKPGKAPKLLIYGATNLAEGVPSRFSGSGSGTDYTFTISSLQPEDIATYYCQNVLNTPWTFGGGTKLEIKR
notes: Humanized form of LK-RB1-9
B2: LK-RB1-9.h1 (antibody, human IgG4, kappa, V domains shown)
VH: B1 VH with T23K, K46E, F95Y
VL: B1 VL with Y71F
notes: Humanized form of LK-RB1-9
B3: LK-RB1-9.h3 (antibody, human IgG4, kappa, V domains shown)
VH: B1 VH with R38K
VL: B1 VL
notes: Humanized form of LK-RB1-9
B4: LK-RB1-9 (antibody, human IgG4 S228P, kappa, V domains shown)
VH: QIQLVQSGPELKKPGETVKISCTASGYTFTTYGMSWVKQAPGKGLKWMGWINTYSGVPTYADDFKGRFAFSLETSASTAYLEINNVKNEDTATYFCARRRRTYHGYLCFDYWGQGTTLTVSS
VL: DIQMTQSPVSLSASVGETVTITCETSENIYGALNWYQRKQGKSPQLLIYGATNLADGMSSRFSGSGSGRQYSLEISSLHPDDVASYYCQNVLNTPWTFGGGTKLEIKR
notes: Anti-LILRB1 antibody from mouse hybridoma; parental antibody of LK-RB1-9.h1 to h3
B5: J19.h1 (antibody, human IgG4 S228P, kappa, V domains shown)
VH: QITLKESGPTLVKPTQTLTLTCTFSGFSLNTYAMGVSWIRQPPGKALEWLASIWWNGNKYNNPSLKSRLTVTKDTSKNQVVLTMTNMDPVDTATYYCAHSRIIRFTDYVMDAWGQGTLVTVSS
VL: DIQMTQSPSSLSTSVGDRVTITCRASEDIYNDLAWYQQKPGKAPKLLIYNANSLHTGVASRFSGSGSGTDFTFTISSLQPEDVATYFCQQYYDYPLTFGQGTKLEIKR
B6: 15G8 (antibody, human IgG4 S228P, kappa, V domains shown)
VH: DVQLQGSGPGLVKPSETLSLTCSVTGYSITSGYYWNWIRQFPGKKLEWMGYISYDGSNNYNPSLKNRITISRDTSKNQFSLKLNSVTAADTATYYCAHGYSYYYAMDAWGQGTSVTVSS
VL: DIQMTQSPSSLSASVGDRVTITCRTSQDISNYLNWYQQKPGKAVKLLISYTSRLHSGVPSRFSGSGSGTDYTLTISSLQPEDFATYYCQQGNTLPTFGQGTKLEIKR
B7: LK-RBi-01 (bispecific antibody, human IgG4 S228P, kappa)
heavy: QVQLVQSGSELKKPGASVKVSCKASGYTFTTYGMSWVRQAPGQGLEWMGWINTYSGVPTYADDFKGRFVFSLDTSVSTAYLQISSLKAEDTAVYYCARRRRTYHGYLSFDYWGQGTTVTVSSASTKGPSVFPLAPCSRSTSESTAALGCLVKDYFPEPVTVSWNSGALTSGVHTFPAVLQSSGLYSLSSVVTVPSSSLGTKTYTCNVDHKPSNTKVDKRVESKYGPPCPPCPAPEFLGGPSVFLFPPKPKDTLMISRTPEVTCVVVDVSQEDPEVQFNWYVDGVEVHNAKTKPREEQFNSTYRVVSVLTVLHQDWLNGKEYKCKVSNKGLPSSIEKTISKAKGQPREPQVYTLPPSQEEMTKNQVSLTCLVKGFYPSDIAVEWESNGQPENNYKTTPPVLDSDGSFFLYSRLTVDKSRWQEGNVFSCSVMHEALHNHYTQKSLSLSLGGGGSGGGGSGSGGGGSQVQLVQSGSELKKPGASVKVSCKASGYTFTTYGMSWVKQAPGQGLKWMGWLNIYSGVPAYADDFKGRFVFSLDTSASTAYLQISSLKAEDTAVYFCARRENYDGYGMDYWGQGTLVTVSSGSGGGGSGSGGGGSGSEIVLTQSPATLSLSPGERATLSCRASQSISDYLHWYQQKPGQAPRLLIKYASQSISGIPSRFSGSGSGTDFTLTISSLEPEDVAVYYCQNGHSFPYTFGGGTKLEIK
light: DIQMTQSPSSLSASVGDRVTITCETSENIYGALNWYQQKPGKAPKLLIYGATNLAEGVPSRFSGSGSGTDFTFTISSLQPEDIATYYCQNVLNTPWTFGGGTKLEIKRTVAAPSVFIFPPSDEQLKSGTASVVCLLNNFYPREAKVQWKVDNALQSGNSQESVTEQDSKDSTYSLSSTLTLSKADYEKHKVYACEVTHQGLSSPVTKSFNRGEC
B8: LK-RBi-02 (bispecific antibody, human IgG4 S228P, kappa)
heavy: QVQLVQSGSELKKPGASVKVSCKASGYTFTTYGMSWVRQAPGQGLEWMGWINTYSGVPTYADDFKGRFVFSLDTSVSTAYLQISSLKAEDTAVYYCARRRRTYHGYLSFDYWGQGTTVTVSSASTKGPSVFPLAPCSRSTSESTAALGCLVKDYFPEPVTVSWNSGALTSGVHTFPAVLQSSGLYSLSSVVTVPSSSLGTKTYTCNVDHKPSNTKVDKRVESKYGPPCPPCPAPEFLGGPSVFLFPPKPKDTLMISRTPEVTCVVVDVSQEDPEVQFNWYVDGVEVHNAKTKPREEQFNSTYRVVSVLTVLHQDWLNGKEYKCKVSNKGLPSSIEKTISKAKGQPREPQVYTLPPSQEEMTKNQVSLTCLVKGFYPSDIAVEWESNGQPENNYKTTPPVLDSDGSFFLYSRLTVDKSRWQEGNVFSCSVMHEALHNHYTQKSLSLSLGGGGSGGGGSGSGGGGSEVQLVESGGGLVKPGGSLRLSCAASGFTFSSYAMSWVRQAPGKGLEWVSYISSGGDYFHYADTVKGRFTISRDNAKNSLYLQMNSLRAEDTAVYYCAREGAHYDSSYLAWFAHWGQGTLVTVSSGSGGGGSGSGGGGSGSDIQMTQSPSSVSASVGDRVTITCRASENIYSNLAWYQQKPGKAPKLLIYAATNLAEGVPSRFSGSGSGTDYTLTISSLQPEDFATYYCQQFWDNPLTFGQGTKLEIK
light: B7 light
B9: LK-RBi-06 (bispecific antibody, human IgG4 S228P, kappa)
heavy: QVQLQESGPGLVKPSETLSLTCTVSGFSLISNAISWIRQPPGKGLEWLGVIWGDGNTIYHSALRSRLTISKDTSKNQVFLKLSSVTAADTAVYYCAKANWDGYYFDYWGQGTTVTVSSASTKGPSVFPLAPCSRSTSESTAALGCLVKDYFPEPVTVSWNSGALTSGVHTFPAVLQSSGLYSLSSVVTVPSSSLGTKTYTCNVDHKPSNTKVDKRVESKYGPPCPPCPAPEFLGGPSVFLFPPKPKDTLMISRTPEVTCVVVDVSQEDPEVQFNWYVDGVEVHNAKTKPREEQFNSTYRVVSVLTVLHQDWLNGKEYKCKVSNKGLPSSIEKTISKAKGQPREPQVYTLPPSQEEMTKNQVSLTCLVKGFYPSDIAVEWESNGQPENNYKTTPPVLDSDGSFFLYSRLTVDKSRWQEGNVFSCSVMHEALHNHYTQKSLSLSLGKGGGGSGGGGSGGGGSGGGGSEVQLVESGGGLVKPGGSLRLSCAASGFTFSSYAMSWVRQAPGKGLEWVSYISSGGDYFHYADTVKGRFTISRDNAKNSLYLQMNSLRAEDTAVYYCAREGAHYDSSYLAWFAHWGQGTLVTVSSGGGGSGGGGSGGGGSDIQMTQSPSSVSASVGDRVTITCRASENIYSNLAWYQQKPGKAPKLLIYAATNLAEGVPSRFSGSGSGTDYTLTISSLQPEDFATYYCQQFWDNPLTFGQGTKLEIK
light: DIQMTQSPSTLSASVGDRVTITCHASQSVDFWLNWYQQKPGKAPKLLISKASNLHTGVPSRFSGSGSGTEFTLTISSLQPDDFATYYCQQGQSYPLTFGQGTKLEIKRTVAAPSVFIFPPSDEQLKSGTASVVCLLNNFYPREAKVQWKVDNALQSGNSQESVTEQDSKDSTYSLSSTLTLSKADYEKHKVYACEVTHQGLSSPVTKSFNRGEC
B10: LK-RBi-07 (bispecific antibody, human IgG4 S228P, kappa)
heavy: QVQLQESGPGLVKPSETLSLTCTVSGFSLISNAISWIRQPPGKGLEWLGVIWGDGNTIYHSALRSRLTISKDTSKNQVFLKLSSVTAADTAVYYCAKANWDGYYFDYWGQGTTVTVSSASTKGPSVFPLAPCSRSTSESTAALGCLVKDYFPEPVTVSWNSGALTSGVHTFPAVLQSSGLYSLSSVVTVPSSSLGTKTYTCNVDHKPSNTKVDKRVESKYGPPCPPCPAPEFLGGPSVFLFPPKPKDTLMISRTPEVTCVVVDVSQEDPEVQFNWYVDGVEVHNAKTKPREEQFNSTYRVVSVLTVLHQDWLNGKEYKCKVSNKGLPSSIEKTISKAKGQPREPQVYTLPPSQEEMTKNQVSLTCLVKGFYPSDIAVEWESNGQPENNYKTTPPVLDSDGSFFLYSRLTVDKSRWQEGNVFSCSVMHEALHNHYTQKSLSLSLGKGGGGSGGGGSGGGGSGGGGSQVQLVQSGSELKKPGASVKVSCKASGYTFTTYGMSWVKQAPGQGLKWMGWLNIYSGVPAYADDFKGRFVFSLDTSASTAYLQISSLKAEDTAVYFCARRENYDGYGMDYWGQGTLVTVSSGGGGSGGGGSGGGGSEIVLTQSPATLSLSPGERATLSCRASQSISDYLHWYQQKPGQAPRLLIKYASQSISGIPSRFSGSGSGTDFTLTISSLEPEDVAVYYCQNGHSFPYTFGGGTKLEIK
light: B9 light
B11: LK-RB2-42 (antibody, human IgG4 S228P, kappa, V domains shown)
VH: EFQLQQSGPELVKPGASVKISCKASGYSFTDYNMNWVKQSNGKSLDWIGIINPKYGTTAYNQKLRDKATLTVDQSSSTAYMQLNSLTSEDSAVYYCASLNWDEGFAYWGQGTLVTVSP
VL: DVLMTQTPLSLPVSLGDQASISCRSSQSIVHSNGNTYLEWYLQKPGQPPKLLIYKVSNRFSGVPERFSGSGSGTDFTLKINRVEAEDLGVYYCFQGSLVPPTFGGGTKLEIKR
B12: LK-RB2-29 (antibody, human IgG4 S228P, kappa, V domains shown)
VH: QVQLQQSGAELARPGASVKLSCKASGYTFTSYWMQWVKQRPGQGLEWIGAIYPGDGDTRYTQKFKGKATLTADKSSSTAYMQLSSLASEDSAVYYCARGYYGSSYADYFDYWGQGTTLTVSS
VL: DIQMTQSPASLSASVGETVTITCRASGNIHNYLAWYQQKQGKSPQLLVYNAKTLADGVPSRFSGSGSGTQYSLKINSLQPEDFGSYYCQHFWSTPPTFGGGTKLEIKR
B13: LK-RB2-32 (antibody, human IgG4 S228P, kappa, V domains shown)
VH: DVQLQESGPGLVKPSQSLSLTCSVTGYSITSGYYWNWIRQFPGNKLEWMGYISFDGSNHYNPSLRNRISITRDTFKNQFFLKLNSVTTEDTATFYCTRRDYNWFAYWGQGTLVTVSA
VL: DIVLTQSPVTLSVTPGDSVSLSCRASQNINKNLHWYQQRSHESPRLLIKYVSQSISGIPSRFSGSGSGTDFTLSINSVETEDFGMYFCQQSNSWPLTFGAGTKLELRR
B14: LK-RB2-47 (antibody, human IgG4 S228P, kappa, V domains shown)
VH: QVQLKQSGPGLVQPSQSLSITCTVSGFSLISYGVHWVRQSPGKGLEWLGVIWSGGSTDYNAAFISRLSISKDNSKSQVFFKMNSLQADDTAIYYCARSFHYHGSTFDYWGQGTTLTVSS
VL: DIQMTQTTSSLSASLGDRVIISCRASQDINNYLNWYQQKPDGTVKLLIYFTSRLHSGVPSSFSGSGSGTDYSLTINNLEQEDIATYFCQQVNTLPYTFGGGTKLEIKR
B15: LK-RB2-44 (antibody, human IgG4 S228P, kappa, V domains shown)
VH: EVQLVESGGDLVKPGGSLKLSCAASGFTFSSYGMSWVRQTPDKRLEWVATISGGGTYTYYPDSVKGRFTISRDNAKNTLYLQMSSLKSEDTAMYYCASGAMDYWGQGTSVTVSS
VL: not shown
B16: LK-RB2-41 (antibody, human IgG4 S228P, kappa, V domains shown)
VH: EVQLQLSGPELVKPGASVKMSCKASGYTFTDYNMHWVKQSHGKSLEWIGYINPNNGGTTYNQKFKGKATLTVNKSSSTAYMELRSLTSEDSAVYYCARAPYYGSSYLLAYWGQGTLVTVSA
VL: DIVMTQSHKFMSTSVGDRVSITCKASQDVSTAVAWYQQKPGQSPKLLIYSASYRYTGVPDRFTGSGSGTDFTFTISSVQAEDLAIYYCQQHYSIPWTFGGGTKLEIKR
B17: LK-RB2-25 (antibody, human IgG4 S228P, kappa, V domains shown)
VH: QVQLKESGPGLVAPSQSLSITCTVSGFSLTSYGVHWVRQPPGKGLEWLGVIWAGGSTKYNSALMSRLSINKDNSKSQVFLKMNSLQTDDTAMYYCARDQMVRSAMDYWGQGTSVTVSS
VL: DIQMIQSPSSMFASLGDRVSLSCRASQGIRGNLDWYQQKPGGTIKLLIYSTSNLNSAVPSRFSGSGSGSDYSLTISNLESEDFADYYCLQRNASPYTFGGGTKLEIKR
B18: LK-RB2-31 (antibody, human IgG4 S228P, kappa, V domains shown)
VH: QVQLQQPGAELVKPGASMKLSCKASGYTFTTYYMYWVKQRPGLGLEWIGGINPSNGGTTFNEKFKNKATLTVDKSSSTAYMQLRSLTSEDSAVYYCTRWRFFDVWGAGTTVTVSS
VL: SIVMTQTPEFLLVSAGDRVTITCKASQSVNNDVAWFQQKPGQSPKLLIYYASNRYTGVPDRFTGSGYGTDFTFTISTVQAEDLAIYFCQQDYSSPPTFGGATKLEIKR
B19: LK-RB2-30 (antibody, human IgG4 S228P, kappa, V domains shown)
VH: EVQLVESGGGLVQPGGSLKLSCAASGFTFNTDGMSWVRQTPDKRLELVAIINSNGGSTYYPDSVKGRFTISRDNAKNTLYLQMSSLKSEDTAMYYCAREGSYGSWFAYWGQGTLVTVSA
VL: DIQMTQSPASLSVSVGETVTITCRASENINNNLAWYHQKQGKSPQLLVYAATNLADGVPSRFSGSGSGTQYSLKINSLQSEDFGSYYCQHFWGTPFTFGGGTKLEIKR
B20: LK-RB2-34 (antibody, human IgG4 S228P, kappa, V domains shown)
VH: DVKVVESGGGLVKPGGSLKLSCAASGFTFSSYSMSWVRQTPEKRLEWVATISTGSSYTYYSDSVKGRFTISRDNAKNTLYLQMSSLKSEDTAMFYCTRGSMDYWGQGTSVTVSS
VL: DILMTQSPSSMSVSLGDTVSITCHASQDISSNIGWLQQKPGNSFKGLIYHGINLEDGVPSRFSGSGSGADYSLTISSLESEDFADYYCVQYAQFPYTFGGGTKLEIKR

Target: T1, human LILRA2-his (human, UniProt Q8N149 24-449, limits assumed)
T1 construct: Analyte of the Biacore run; not shown: His tag
T1 sequence (Q8N149 24-449 limits assumed): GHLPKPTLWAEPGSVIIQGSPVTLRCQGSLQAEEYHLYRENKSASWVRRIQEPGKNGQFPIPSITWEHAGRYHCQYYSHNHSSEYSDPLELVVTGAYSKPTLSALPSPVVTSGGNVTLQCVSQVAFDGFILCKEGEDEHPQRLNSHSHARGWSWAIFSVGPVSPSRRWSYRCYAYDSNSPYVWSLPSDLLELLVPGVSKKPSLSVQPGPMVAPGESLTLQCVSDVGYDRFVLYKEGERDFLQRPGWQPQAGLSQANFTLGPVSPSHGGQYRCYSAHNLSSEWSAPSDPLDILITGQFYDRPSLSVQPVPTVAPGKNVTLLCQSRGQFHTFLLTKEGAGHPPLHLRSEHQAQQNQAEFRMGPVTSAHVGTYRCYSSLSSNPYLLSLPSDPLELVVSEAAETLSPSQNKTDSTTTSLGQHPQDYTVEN
Experiment: SPR (Biacore 8K), antibody captured via Fc, LILRA2-his as analyte, 1:1 model

| Kd | koff | kon | Binder |
| --- | --- | --- | --- |
| 6.97 nM | 0.00132 s⁻¹ | 189000 M⁻¹ s⁻¹ | B1 |
| 10.4 nM | 0.00219 s⁻¹ | 210000 M⁻¹ s⁻¹ | B2 |
| 6.77 nM | 0.00126 s⁻¹ | 186000 M⁻¹ s⁻¹ | B3 |
| 13.3 nM | 0.00286 s⁻¹ | 215000 M⁻¹ s⁻¹ | B4 |

Target: T2, human LILRB1 expressed on CHOK1 cells (human, UniProt Q8NHL6 24-650)
T2 construct: whole, on cells; also called CHOK1-hLILRB1; CHOK1-LILRB1
T2 sequence (Q8NHL6 24-650): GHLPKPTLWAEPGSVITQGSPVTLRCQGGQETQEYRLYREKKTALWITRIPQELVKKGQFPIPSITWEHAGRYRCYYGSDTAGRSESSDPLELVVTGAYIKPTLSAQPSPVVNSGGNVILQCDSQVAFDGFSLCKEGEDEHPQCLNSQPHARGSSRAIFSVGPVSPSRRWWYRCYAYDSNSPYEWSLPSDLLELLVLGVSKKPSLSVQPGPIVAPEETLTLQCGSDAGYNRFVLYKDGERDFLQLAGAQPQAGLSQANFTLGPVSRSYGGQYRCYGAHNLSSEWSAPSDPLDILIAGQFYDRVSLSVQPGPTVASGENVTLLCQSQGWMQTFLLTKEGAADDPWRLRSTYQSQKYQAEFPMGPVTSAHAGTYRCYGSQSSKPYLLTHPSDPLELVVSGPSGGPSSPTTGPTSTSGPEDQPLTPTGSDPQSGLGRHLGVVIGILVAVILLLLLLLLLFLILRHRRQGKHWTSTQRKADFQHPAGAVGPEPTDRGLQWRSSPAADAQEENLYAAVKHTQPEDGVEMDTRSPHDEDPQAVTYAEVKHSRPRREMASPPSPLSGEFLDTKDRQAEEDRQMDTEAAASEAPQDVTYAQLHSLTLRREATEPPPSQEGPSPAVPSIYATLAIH
Experiment: flow cytometry (FACS) binding to CHOK1-hLILRB1 cells

| binding result | EC50 | Binder |
| --- | --- | --- |
| no binding |  | B5 |
|  | 1.17 nM | B6 |
|  | 7.15 nM | B7 |
|  | 1.27 nM | B8 |
|  | 1.47 nM | B9 |
|  | 2.51 nM | B10 |

Target: T3, human LILRB2 expressed on CHOK1 cells (human, UniProt Q8N423 22-597)
T3 construct: whole, on cells; also called CHOK1-hLILRB2; CHOK1-LILRB2
T3 sequence (Q8N423 22-597): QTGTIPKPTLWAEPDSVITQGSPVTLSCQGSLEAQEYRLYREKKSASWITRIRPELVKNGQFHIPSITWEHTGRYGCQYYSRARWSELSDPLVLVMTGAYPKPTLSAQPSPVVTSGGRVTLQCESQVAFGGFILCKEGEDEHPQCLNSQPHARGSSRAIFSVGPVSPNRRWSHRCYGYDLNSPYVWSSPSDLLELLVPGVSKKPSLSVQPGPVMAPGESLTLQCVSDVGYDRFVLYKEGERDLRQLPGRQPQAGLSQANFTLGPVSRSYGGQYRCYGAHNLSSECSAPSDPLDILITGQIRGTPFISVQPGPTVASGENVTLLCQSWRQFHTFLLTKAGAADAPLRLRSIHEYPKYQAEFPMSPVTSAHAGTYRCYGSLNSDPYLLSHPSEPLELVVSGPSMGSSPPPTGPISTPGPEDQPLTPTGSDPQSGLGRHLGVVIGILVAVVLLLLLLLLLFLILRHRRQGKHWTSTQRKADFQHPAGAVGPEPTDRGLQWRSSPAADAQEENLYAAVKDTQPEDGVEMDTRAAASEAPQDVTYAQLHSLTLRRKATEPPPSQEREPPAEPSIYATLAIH
Experiment: flow cytometry (FACS) binding to CHOK1-hLILRB2 cells

| EC50 | binding result | Binder |
| --- | --- | --- |
| 0.27 nM |  | B5 |
|  | no binding | B6 |
| 0.8 nM |  | B7 |
| 1.25 nM |  | B8 |
| 0.73 nM |  | B9 |
| 1.58 nM |  | B10 |

Target: T4, human LILRB1-his (human, UniProt Q8NHL6 24-458, limits assumed)
T4 construct: Analyte of the Biacore run; not shown: His tag
T4 sequence (Q8NHL6 24-458 limits assumed): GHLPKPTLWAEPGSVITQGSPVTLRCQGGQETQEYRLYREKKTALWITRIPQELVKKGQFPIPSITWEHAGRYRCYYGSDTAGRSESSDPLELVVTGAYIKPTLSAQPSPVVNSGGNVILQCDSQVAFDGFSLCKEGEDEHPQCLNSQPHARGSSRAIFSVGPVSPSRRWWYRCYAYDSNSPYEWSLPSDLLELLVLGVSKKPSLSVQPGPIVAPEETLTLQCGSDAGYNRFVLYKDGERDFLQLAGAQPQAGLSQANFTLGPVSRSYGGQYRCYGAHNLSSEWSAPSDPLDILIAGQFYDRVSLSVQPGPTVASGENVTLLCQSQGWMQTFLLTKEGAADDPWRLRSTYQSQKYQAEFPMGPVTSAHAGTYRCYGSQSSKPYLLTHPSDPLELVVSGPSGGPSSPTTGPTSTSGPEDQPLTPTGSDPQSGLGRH
Experiment: SPR (Biacore 8K), antibody captured via Fc, LILRB1-his as analyte, 1:1 model

| Kd | koff | kon | Binder |
| --- | --- | --- | --- |
| 0.927 nM | 0.000224 s⁻¹ | 241000 M⁻¹ s⁻¹ | B1 |
| 0.825 nM | 0.000209 s⁻¹ | 253000 M⁻¹ s⁻¹ | B2 |
| 0.497 nM | 0.000115 s⁻¹ | 232000 M⁻¹ s⁻¹ | B3 |
| 0.836 nM | 0.000255 s⁻¹ | 305000 M⁻¹ s⁻¹ | B4 |

Target: cynomolgus LILRB2 (cynomolgus)
Experiment: Octet off-rate ranking;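 also: antibody dissociation rate constants against cynomolgus LILRB2 plus human LILRB1, LILRB2, LILRA1 and LILRA2, measured on an Octet instrument to rank binding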
From the text: (§1) Binding affinity of anti-LILRB1 and anti-LILRB2 antibodies against human LILRB1, LILRB2, LILRA1, LILRA2 and cynomolgus LILRB2 was ranked by measuring dissociation rate constant (Kdis) using the Octet system.

| koff | Binder |
| --- | --- |
| 0.000147 s⁻¹ | B11 |
| 0.000215 s⁻¹ | B12 |
| 0.00123 s⁻¹ | B13 |
| 3.03e-05 s⁻¹ | B14 |
| 0.000346 s⁻¹ | B15 |
| 0.00119 s⁻¹ | B16 |
| 0.000424 s⁻¹ | B17 |
| 0.000291 s⁻¹ | B18 |
| 2.01e-05 s⁻¹ | B19 |
| 0.000673 s⁻¹ | B20 |

Target: T5, human LILRB1 (human, UniProt Q8NHL6 24-458, limits assumed)
T5 construct: also called hLILRB1
T5 sequence (Q8NHL6 24-458 limits assumed): as above
Experiment: Octet off-rate ranking;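 also: antibody dissociation rate constants against cynomolgus LILRB2 plus human LILRB1, LILRB2, LILRA1 and LILRA2, measured on an Octet instrument to rank binding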
From the text: as §1

| koff | Binder |
| --- | --- |
| 0.00186 s⁻¹ | B13 |
| 0.000609 s⁻¹ | B17 |
| 0.00167 s⁻¹ | B18 |

Target: T6, human LILRB2 (human, UniProt Q8N423 22-460, limits assumed)
T6 construct: also called hLILRB2
Experiment: Octet off-rate ranking;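 also: antibody dissociation rate constants against cynomolgus LILRB2 plus human LILRB1, LILRB2, LILRA1 and LILRA2, measured on an Octet instrument to rank binding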
From the text: as §1

| koff | Binder |
| --- | --- |
| 0.00291 s⁻¹ | B13 |
| 6.33e-06 s⁻¹ | B16 |

Target: T2, human LILRB1 expressed on CHOK1 cells
Experiment: cell based RBA on CHOK1-hLILRB1 cells, flow cytometry; competitor HLA-G

| EC50 | Binder |
| --- | --- |
| 2.05 µg/mL | B6 |
| 1.4 µg/mL | B7 |
| 2.12 µg/mL | B8 |
| 1.31 µg/mL | B9 |
| 1.22 µg/mL | B10 |

Target: T3, human LILRB2 expressed on CHOK1 cells
Experiment: cell based RBA on CHOK1-hLILRB2 cells, flow cytometry; competitor HLA-G

| EC50 | Binder |
| --- | --- |
| 0.46 µg/mL | B5 |
| 0.38 µg/mL | B7 |
| 0.19 µg/mL | B8 |
| 0.57 µg/mL | B9 |
| 0.97 µg/mL | B10 |
